This note sets out measurements from publication PMC4224607 (Chemical communications (Cambridge, England), 2014).

The test concerns the target human carbonic anhydrase II (human, UniProt P00918 1-260). Kind of test: SPR. Background: Surface plasmon resonance follows binding to a sensor surface in real time, without labels.

Non-standard residues stand in square brackets, D forms with d. No end group written: not given here.

Regarding [dF][dP][dL][dS][dK] [fplsk], the Kd is 5.8 µM.

Broadly, the Kd is the constant that tells how readily two partners part at equilibrium. Low values mean a tighter complex, high ones a looser complex.
